In patent US20250051473A1 (IGM BIOSCIENCES, published 2025):

Tests used:
[1] = target: T1, recombinant cynomolgus monkey CD38 extracellular domain protein (ACROBiosystems) (cynomolgus monkey, UniProt Q5VAN0 44-301); assay: ELISA screen of hybridoma supernatants on recombinant CD38
T1 construct: Bought extracellular domain protein; also called cyno CD38; recombinant cyno CD38

[2] = target: T2, recombinant human CD38 extracellular domain protein (ACROBiosystems, Cat #CD8-H5224) (human, UniProt P28907 43-300); assay: as above
T2 construct: Bought protein; also called recombinant human CD38 protein

[3] = target: T2, recombinant human CD38 extracellular …; assay: BLI (Octet 384), IgG on anti-human IgG Fc biosensors, soluble human CD38 as analyte, 1:1 global fit
Experimental: Samples and buffer were applied in 384-well plates. After an initial baseline calibration for 60 seconds, sensors were loaded with 20 nM of IgG antibodies. The biosensors were dipped into buffer to reach a baseline value and incubated for 600 seconds with 2-fold serial diluted human CD38 protein starting at 100 nM for association, followed by 900 seconds in buffer for dissociation.

Row | Binder | binding result [1] | binding result [2] | Kd [3] [nM] | koff [3] [s⁻¹] | kon [3] [M⁻¹ s⁻¹]
1 | Clone G (antibody, V domains shown, Murine hybridoma antibody tested as supernatant; also called anti-CD38 murine hybridoma clone G) VH: QVQLQQPGPELVKPVASVKISCKTSDYAFSSSWMNWVKQRPGKGLEWIGWIYPGDGDTNYNGKFKGKATLTADKSSSTAYMQLSSLTSEDSAVYFCARGRWGMDNWGQGTSVTVSS VL: DIVMTQSHKFMSTSVGDRVSITCKASQNVVTAVAWYQQKPGQSPKLLIYWASSRHTGVPDRFTGSGSGTDFTLTISNVQSEDLADYFCQQYSNYPFTFGSGTKLEIK | binds | binds |  |  | 
2 | Clone H (antibody, V domains shown, Murine hybridoma antibody tested as supernatant; also called anti-CD38 murine hybridoma clone H) VH: QVPLHQSGPELIKPGASLKISCKASDSAFNNSWMNWVRQRPGKGLEWIGWIYPGDDDTKYNGKFMGKATLTADKSSGTAYMQLSSLTSEDSAVYFCARGRWGMDYWGQGTSVTVSS VL: DIVMTQFHNFMSTSVGDRVNINCKASQNVVTAVAWYQQKPGQSPKLLIYWASTRHTGVPDRFTGSGSGTDFTLTISNVQSEDLADYFCQQYSNYPFTFGSGTKLEIK | binds | binds |  |  | 
3 | Clone I (antibody, V domains shown, Murine hybridoma antibody tested as supernatant; also called anti-CD38 murine hybridoma clone I) VH: QVPLQQSGPELVKPGASVKISCKASDSAFNNSWTIWVRQRPGKGLEWIGWIYPGDDDTKYNGKFMGKATLTADKSSGTAYMQLSSLTSEDSAVYFCARGRWGMDYWGQGTSVTVSS VL: DIVMTQSRKFMSTSVGDRVSISCKASQNVVTAVAWYQQKPGQSPKLLIYWASTRHTGVPDRFTGSGSGTDFTLTISNVQSEDLADYFCQQYSNYPFTFGSGTELEIK | binds | binds |  |  | 
4 | Clone F (antibody, V domains shown, Murine hybridoma antibody tested as supernatant; also called anti-CD38 murine hybridoma clone F) VH: EVQLQQSGAEFVRPGASVKLSCTASGFNIKDSLMHWVKQRPEQGLEWIGWIDPEDDKTKYAPKFQDEATLTADTSSNTAYLHLSSLTSEDTAIYYCARRFLRGFAYWGQGTLVTVSA VL: DIVMTQSPSSLSVSAGEKVTMSCKSSQSLLNSGNQKNYLAWYQQKPGQPPKLLIYGASTRESGVPDRFTGSGSGTDFTLTISSVQAEDLAVYYCQNDHSYPYTFGGGTKLEIK | binds | binds |  |  | 
5 | IgG OKT10-1 (antibody, V domains shown, also called parental OKT10 in IgG format) VH: EVKLQESGGGLVQPGGSLKLSCAASGFDFSRSWMNWVRQAPGKGLEWIGEINPDSSTINYTTSLKDKFIISRDNAKNTLYLQMTKVRSEDTALYYCARYGNWFPYWGQGTLVTVSA VL: DIVMTQSPKIMPTSVGDRVSVTCKASQNVDTNVAWYQQKPGQSPKALIYSASYRYSGVPDRFTGSGSGTDFTLTITNVQSEDLAEYFCQQYDSYPLTFGAGTKLDLK |  |  | 5.97 | 0.00206 | 344000
6 | Clone B (antibody, V domains shown, Murine hybridoma antibody tested as supernatant; also called anti-CD38 murine hybridoma clone B) VH: QAYLQQSGAEVVRSGASVKMSCKAAGYTFTSYNMHWVKQTPGQGLEWIGYIYPGNGGTNYNQKFKGKATLTADTSSTTAYMQISSLTSEDSAVYFCARGASMITTGAWFAYWGQGTLVTVSA VL: NIVLTQSPASLAVSLGQRATISCRASESLDTYGNSFMYWYQQKPGQPPKLLIYLASSLESGVPARFSGSGSRTDFTLTIDPVEADDAATYYCHQNHEDPWTFGGGTKLEIK | binds |  |  |  | 
7 | IgG B-1 (antibody, V domains shown, also called chimeric IgG of Clone B) VH: QAYLQQSGAEVVRSGASVKMSCKAAGYTFTSYNMHWVKQTPGQGLEWIGYIYPGNGGTNYNQKFKGKATLTADTSSTTAYMQISSLTSEDSAVYFCARGASMITTGAWFAYWGQGTLVTVSA VL: NIVLTQSPASLAVSLGQRATISCRASESLDTYGNSFMYWYQQKPGQPPKLLIYLASSLESGVPARFSGSGSRTDFTLTIDPVEADDAATYYCHQNHEDPWTFGGGTKLEIK |  |  | 0.526 | 7.32e-05 | 139000
8 | IgG OKT10-2 (antibody, V domains shown, also called humanized OKT10 IgG (OKT10VH2 / OKT10VL2)) VH: EVQLLESGGGLVQPGGSLRLSCAASGFDFSRSWMNWVRQAPGKGLEWVSEINPDSSTINYATSLKDRFTISRDNSKNTLYLQMNSLRAEDTAVYYCARYGNWFPYWGQGTLVTVSS VL: DIQMTQSPSSLSASVGDRVTITCKASQNVDTNVAWYQQKPGKAPKALIYSASYRYSGVPSRFSGSGSGTDFTLTISSLQPEDFATYYCQQYDSYPLTFGQGTKVEIK |  |  | 28.3 | 0.0113 | 400000
9 | Clone D (antibody, V domains shown, Murine hybridoma antibody tested as supernatant; also called anti-CD38 murine hybridoma clone D) VH: QIQLVQSGPELKKPGETVKISCKASGYTFTNYGMNWVKQAPGEDLKWMGWLNTNTGEPTYAEEFKGRFAFSLETSASTAYLQINNLRNEDTATYFCARWYYGSSDNSYAMDYWGQGTSVTVSS VL: ETIVTQFPASLSMAIGEKVTIRCITSTDIDDDMNWYQQRPGEPPKLLISEGNTLRPGVPSRFSSSGYGTDFVFTFENMLSEDVADYYCLQSDSLPYTVGGGTRLEIK | binds | binds |  |  | 
10 | IgG B-2 (antibody, V domains shown, also called humanized Clone B IgG (BVH1 / BVL1)) VH: QVQLVQSGAEVKKPGSSVKVSCKASGYTFTSYNMHWVRQAPGQGLEWMGYIYPGNGGTNYNQKFKGRVTITADESTSTAYMELSSLRSEDTAVYYCARGASMITTGAWFAYWGQGTLVTVSS VL: DIQMTQSPSSVSASVGDRVTITCRASESLDTYGNSFMYWYQQKPGKAPKLLIYLASSLESGVPSRFSGSGSGTDFTLTISSLQPEDFATYYCHQNHEDPWTFGQGTKVEIK |  |  | 0.8 | 0.000225 | 281000
11 | IgG E-2 (antibody, V domains shown, also called humanized Clone E IgG (EVH1 / EVL1)) VH: QVQLVQSGAEVKKPGSSVKVSCKASGYTFTNHWIEWVRQAPGQGLEWMGDIFPGGGYTDYNEKFKGRVTITADESTSTAYMELSSLRSEDTAVYYCARGRDLAMDYWGQGTLVTVSS VL: DIQMTQSPSSLSASVGDRVTITCHASQNINVWLGWYQQKPGKAPKLLIYKASNLHTGVPSRFSGSGSGTDFTLTISSLQPEDFATYYCQQGQSYPYTFGQGTKVEIK |  |  | 7.62 | 0.00378 | 496000
12 | Clone A (antibody, V domains shown, Murine hybridoma antibody tested as supernatant; also called anti-CD38 murine hybridoma clone A) VH: QVQLQQSGAELVKPGASVKISCKASGYTFSNYWIEWVKQRPGLGLEWIGDILPGSGTTNYNEKFKGKATFTADTSSNTAYMQLSSLTSEDSAVYYCAGYGNYLWFTYWGQGTLVTVSA VL: DIQMNQSPSSLSASLGDTITITCHASQNINVWLSWYQQKPGNIPKLLIYKASNLHTGVPSRFSGSGSGTGFTLTISSLQPEDIATYYCQQGQSYPYTFGGGTKLEIK | binds | binds |  |  | 
13 | Clone E (antibody, V domains shown, Murine hybridoma antibody tested as supernatant; also called anti-CD38 murine hybridoma clone E) VH: QVQLQQSGAELVRPGTSVKMSCKAAGYTFTNHWIEWVKQRPGHGLEWIGDIFPGGGYTDYNEKFKGKATLTADTSSSTAYMQLSSLTSEDSAIYYCARGRDLAMDYWGQGTSVTVSS VL: DIQMNQSPSSLSASLGDTITITCHASQNINVWLGWYQQKPGNIPKLLIYKASNLHTGVPSRFSGSGSGTGFTLTISSLQPEDIATYYCQQGQSYPYTFGGGTKLEIK | binds |  |  |  | 
14 | IgG E-1 (antibody, V domains shown, also called chimeric IgG of Clone E) VH: QVQLQQSGAELVRPGTSVKMSCKAAGYTFTNHWIEWVKQRPGHGLEWIGDIFPGGGYTDYNEKFKGKATLTADTSSSTAYMQLSSLTSEDSAIYYCARGRDLAMDYWGQGTSVTVSS VL: DIQMNQSPSSLSASLGDTITITCHASQNINVWLGWYQQKPGNIPKLLIYKASNLHTGVPSRFSGSGSGTGFTLTISSLQPEDIATYYCQQGQSYPYTFGGGTKLEIK |  |  | 1.99 | 0.00117 | 587000
15 | Clone C (antibody, V domains shown, Murine hybridoma antibody tested as supernatant; also called anti-CD38 murine hybridoma clone C) VH: EVQLQQSGTVLARPGASVKMSCKASGYTFTRYWMHWVKQRPGQDLEWIGGFYPGNSDTRYNQKFKDKAKLTAVTSTSTAYMELSSLTNEDSAVYYCTRGDRHDEGFAYWGQGTLVTVSA VL: DIQMTQSPASLSASVGETVTITCRASGNIHNYLAWYQQKQGKSPQLLVYNAKTLPDGVPSRFSGSGSGTQYSLKINSLQPEDFGTYYCQNIWTNYTFGGGTKLEIK | binds | binds |  |  | 
